The target in this assay is mouse platelet glycoprotein Ibα (mouse (endogenous in platelets)) (UniProt O35930).
Sequence of UniProt O35930 (O35930 17-734): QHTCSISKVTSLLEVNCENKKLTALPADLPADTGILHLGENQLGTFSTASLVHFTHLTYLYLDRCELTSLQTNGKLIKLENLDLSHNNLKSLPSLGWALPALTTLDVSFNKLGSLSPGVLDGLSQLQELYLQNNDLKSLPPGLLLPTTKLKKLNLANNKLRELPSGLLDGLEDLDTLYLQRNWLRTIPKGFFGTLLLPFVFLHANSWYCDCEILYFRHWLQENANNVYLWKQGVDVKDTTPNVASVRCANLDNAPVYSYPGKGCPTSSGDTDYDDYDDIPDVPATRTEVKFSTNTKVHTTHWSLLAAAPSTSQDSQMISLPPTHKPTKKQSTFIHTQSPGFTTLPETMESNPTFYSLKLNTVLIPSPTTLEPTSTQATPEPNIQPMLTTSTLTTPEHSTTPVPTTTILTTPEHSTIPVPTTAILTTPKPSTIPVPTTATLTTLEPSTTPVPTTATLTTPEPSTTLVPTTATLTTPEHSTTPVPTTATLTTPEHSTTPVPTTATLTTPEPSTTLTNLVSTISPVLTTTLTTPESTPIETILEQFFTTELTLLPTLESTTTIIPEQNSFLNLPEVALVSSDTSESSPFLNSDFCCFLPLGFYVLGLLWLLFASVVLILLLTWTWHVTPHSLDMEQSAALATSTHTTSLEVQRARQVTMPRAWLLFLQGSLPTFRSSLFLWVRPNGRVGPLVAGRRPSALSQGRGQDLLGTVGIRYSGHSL

As to “recombinant mouse von Willebrand factor, Q8CIZ8 764-2813”, the translocation (rolling) velocity of Mical1+/+ platelets on immobilised recombinant mouse VWF at 1500 s-1 after αIIbβ3 blockade is 1.41 μm/s.

Values taken from PMC12335590.
